Measurements taken from the DeepSol protein solubility set.

Test: soluble on expression in E. coli; label from the status in PepcDB or PDB records

Row | Sequence | soluble on expression in E. coli
1 | MSLANRIRLHIWGDYACFTRPEMKVERVSYDVITPSAARGILSAIHWKPAINWVIDKIYVLKPIRFESVRRNELGAKISESKVSGAMKRKSVADLYTVIEDDRQQRAATVLKDVAYVIEAHAVMTSKAGVDENTTKHIEMFKRRALKGQCFQQPCMGVREFPAHFALIDDNDPLPLSQLSESEFNRDLGWMLHDIDFEHGNTPHFFRAELKNGVIDVPPFYAEEVKREGHHHHHH | soluble
2 | MSLGNNLKKKNGADSLYYTTRTFATTKEVIQANKFVNSEKLNEIAKKTDCTYLKSPAGIFTQATLPINKIYEELSHDTINAVKLTFNSYNQPDNGKFSMKAPTYVLLLREKERQSFFEENKLTDNITSYLAVHNAIISNKPTTNQYVFTNLTRLINACVNEKQEAKKKAGDSWNEAAWEAANPDWNKVVLIPVLVQYDSSSNKNMISIQHDLQPGYVKLEGGPDGTKLKLEVTYTNFNGKEGHHHHHH | soluble
3 | MAERTHFMELALVEARSAGERDEVPIGAVLVLDGRVIARSGNRTRELNDVTAHAEIAVIRMACEALGQERLPGADLYVTLEPCTMCAAAISFARIRRLYYGAQDPKGGAVESGVRFFSQPTCHHAPDVYSGLAESESAEILRQF | soluble
4 | MERVYRTDLKLLRYFLAVAEELHFGRAAARLNMSQPPLSIHIKELENQLGTQLFIRHSRSVVLTHAGKILMEESRRLLVNANNVLARIEQIGRGEAGRIELGVVGTAMWGRMRPVMRRFLRENPNVDVLFREKMPAMQMALLERRELDAGIWRMATEPPTGFTSLRLHESAFLVAMPEEHHLSSFSTVPLEALRDEYFVTMPPVYTDWDFLQRVCQQVGFSPVVIREVNEPQTVLAMVSMGIGITLIADSYAQMNWPGVIFRPLKQRIPADLYIVYETQQVTPAMVKLLAALTQ | soluble
5 | MHKVQRSVLVPYSAAQMFDLVADVEKYPEFMPWCGGAEVHSRSEHGMQASILISFAGLKQRFSTRNTHDYPQRIDLELVDGPFSMLVGHWVFQPLAEDACKVLFTLEYAFSNRALEMVVGPVFNRIAASFIDSFTKRAQAKYGEAAALEHHHHHH | soluble
6 | MGSDKIHHHHHHMDAPSTTPHDAVFKQFLMHAETARDFLEIHLPVELRELCDLNTLHLESGSFIEESLKGHSTDVLYSVQMQGNPGYLHVVIEHQSKPDKKMAFRMMRYSIAAMHRHLEADHDKLPLVVPILFYQGEATPYPLSMCWFDMFYSPELARRVYNSPFPLVDITITPDDEIMQHRRIAILELLQKHIRQRDLMLLLEQLVTLIDEGYTSGSQLVAMQNYMLQRGHTEQADLFYGVLRDRETGGESMMTLAQWFEEKGIEKGIQQGRQEVSQEFAQRLLSKGMSREDVAEMANLPLAEIDKVINLI | not soluble
7 | MVGNPALAELLRAPRLIPWRNWSGAQSCLPLAREAPKDLDELVRIIRQASGRIRPVGSGHSFSALVPTDGTLLSLAYFSGLLSHDSVTLQAEFGGGTPMSQMGAPLKEIGQALVNMADIDYQTLAGAIATSTHGTGVGFGSYSAQVRGLQLVTASGEVLECDAKRNVEVFDAARVSLGALGVVTRVRLQNRAAYRLRERQWIARTEELLEDVEKNTRENQHWEMLVVTHSDYALSIALNETDEPKTPPLDPAKEGGNEFVGLIEGLDKYLSDFPETRRTLLNSLRHFARFDERVDDSYAVYANVRNVRFNEMEYSVPAEHGPACLREILALIRDKDLRTWFPIEYRYVKADDIPLSMFEGRDSCSISVHQHYSMDHHNFFAAVEPIFWKYAGRPHWGKLHGLNAHQLQGLYPRWKAFAEVRQALDPRGRFLNAHLSSILGVTKLAAALEHHHHHH | not soluble
8 | MNDYAAMPSEDREVGALSLPPHSMEAEQSVLGGLMLENPAWDRIADVVSGEDFYRHEHRLIFRSIAKLINESRPADVITVQEDLQRNEELEAAGGFEYLITLAQNTPSAANIRRYAEIVRERSIMRQLAEVGTEIARSAYNPQGRDAGQLLDEAENKVFQIAESTAKSKQGFLEMPDLLKEVVQRIDMLYSRDNPDEVTGVPTGFIDLDKKTSGLQPGDLIIVAGRPSMGKTAFSINIAEHVAVEGRLPVAVFSMEMGGAQLVMRMLGSVGRLDQSVLKTGRLEDEHWGRLNEAVVKLSDAPVYIDETPGLTALELRARARRLARQFNNKLGLIVIDYLQLMAGSGRSDNRASELGEISRSLKALAKELQVPIIALSQLSRTVESRTDKRPMMSDLRESGAIEQDADLIMFMYRDEYYNQDSPMKGLAECIIGKHRNGPVGKIFLTWTGQFTKFDNAAYIPEEAKIED | not soluble
9 | MNNKKTGVLLVNLGTPTAPTAAAVKQFLSEFLHDKRVVDMNRFIWCPLLHGVILPIRAPKVAKLYESVWMEEGSPLLVYSQRQVKALEARLSMPVALGMTYGEPRIKSGIESLEQQGCDEIIILPLYPQYSRTTTAAVFDQIAKQYKTTPVLPNFTMIHNYHDHPLYIKALANSVRQSWERNGKGDYVLCSYHGIPQRFVDNGDIYAAHCERTTELLAQELGLTSEQIGMSYQSRFGREEWLKPYTSETLKALAPKGIKSLDIISPAFSSDCLETLEELSEECKEIFMESGGQKYTFIPCLNDDELHIEMMADIVSSKIFNK | not soluble
10 | MVKIRLARFGSKHNPHYRIVVTDARRKRDGKYIEKIGYYDPRKTTPDWLKVDVERARYWLSVGAQPTDTARRLLRQAGVFRQEAREGA | soluble
11 | MTTNPIELESCIIDQIRCPECALTCLQKNIYRHMTQIHNWTTEDCQELIAAIKSEKKSRASSTSFVCCHCRMIFRSVKHLVQHKKMCTEQPQHDNEHLDVYIDEMIVEGEEEVVGINEYDINETKESTQKPSTSSGDSFEMNIPPHRQASRPIQPHHLTQECQIATIIEKPSKFSLMQLPGKYRGCNLKCPECSSTSESLDEFLLHCRQEHMSHDQKFNLEREFFQSRDQFKEWFDQRQEDTCTSLTKRTGHAGETLYRCHRVGKYQSVAKSRKSNPRKIDQTCTAYLKVTTEEDGSTWATGCFTHIGHDLDHKLLWLTESQEKYVRELIDLGWTSDQIFFFIRNEYKDYECKLKYISKNDIRNITVRYNREREKLGFLTDTAKSSAIPISLKERRAVAADSTKEPREEDDDEVKAKIPRMQSKPDNIEKATTSENNSAKHREQVVDSETAEEDEYINVVDVDTMPPNDAGKITIGLNF | not soluble
12 | MGSDKIHHHHHHMKDSFRTIYNGASVPLAEIPPVDINEFLQGILDSVDRGWRIVSYFGIPAPSSTALVCILANKAEGRLAAARTETSDSHVPSLSSLITQVQLFEREIAEQCGLIFDGHPWFKPVRFHHSFVPGRDAWDRTADEPLRVGVMDYYQVAGDEVHEVAVGPVHAGIIEPGHFRFQCHGEEVFHLEISLGYQHRGIEAGLAGGPHPRTLQVMETAAGDTTIGHGQAYCMIMESLGGIKAPPRAEVLRGIALELERLANHTGDLGAIAGDVGYLPTSSFCGRIRGDFLNMTAVLCGSRFGRGLLVPGGTIFDLTPGLRDDLLKRLAEARRDLTNAIELLWSSPSVMGRLEGTGTLTREQALELGLVGPAARACGIKRDVRLDYPFGIYRMTHLPVATVFHGDVCARTMIRWLEAQKSMDFIEEQLRQLPGGGHRVATAPCAGGRLAVALTEGWRGEICHVAVTDDAGRFSRYKIVDPSFHNWQGLALALRGQQISDFPLCNKSFNLSYCGFDL | not soluble
13 | MSLNDEMKGKSGKVKVMYVRSDDDSDKRTHNPRTGKGGGRPGKSRADGGRRPARDDKQSQPRDRKWEDSPWRTVSRAPGDETPEKADHGGISGKSFIDPEVLRRQRAEETRVYGENACQALFQSRPEAIVRAWFIQSVTPRFKEALRWMAANRKAYHVVDEAELTKASGTEHHGGVCFLIKKRNGTTVQQWVSQAGAQDCVLALENESNPHNLGGMMRSCAHFGVKGVVVQDAALLESGAAIRTAEGGAEHVQPITGDNIVNVLDDFRQAGYTVVTTSSEQGKPLFKTSLPAKMVLVLGQEYEGLPDAARDPNDLRVKIDGTGNVAGLNISVATGVLLGEWWRQNKAEGHHHHHH | soluble
14 | MGSDKIHHHHHHMGDKYLTLSELNLEGQLLGFVGGEPGKYKYLQLAVPSGNVEIKLPKELRRSLSLSLVPGQHIRICGHSKVDSRTSKIKIKAYRVTPIDGCPKQDLPPQIKARIMVCQKGGCLKRGGKGLLSDLEKTLCDRGLLDKVTIEHTSCQKCCNSAPNCVLHLGKKKYKNIHPDAIASLLESHLTE | not soluble
15 | MPLNTDFFKPSKNKEKFVLVFLKRGYPSHVDLLTKIAEKVKMKSIGYKIPNAEYLERVSDEELRDLYSSALVTLYPIDFEYYGYIPVESMAAGTPVIAFRYSGGPAETIVDGETGWLASDEEEFYRLTIKVYNEGYPEDTSVKSRKRAEEFSIQN | soluble
16 | MVSVSSEPVMPTALKILIAGGFGVGKTTMVGSVSEVPPLETEERMTAVSLGVDDLSGVEGKKSTTVAMDFGRITIAPELVLYLFGTPGQDRFWFMWDDLATGALAAIVLADTRRLDASFASIDFFEARDIPFAVGVNCFDGRRDCSAEQVRTALDLDPSTPVLLCDVRDRGSSKSVLLAVLEAARAQAAARLAPLGGGQLEHHHHHH | not soluble
17 | MTDPSQMQAEELLSFLEEGGTLKMLHDVSADTIEHIYAVGYNFFQSGKIEQAAKVFQLLSMLDHYQARFFIGLGAARQELGEYLQAIDAYSYAALVDINDPRPPFHSAECHLKLEQLTEAESGFYSAKEMSAGKSQYADLHQRAGIMLEAVRNKRSNLEHHHHHH | soluble
18 | MGSDKIHHHHHHMLRSTISLLMNSAAQKTMTNSNFVLNAPKITLTKVEQNICNLLNDYTDLYNQKYHNKPEPLTLRITGGWVRDKLLGQGSHDLDIAINVMSGEQFATGLNEYLQQHYAKYGAKPHNIHKIDKNPEKSKHLETATTKLFGVEVDFVNLRSEKYTELSRIPKVCFGTPEEDALRRDATLNALFYNIHKGEVEDFTKRGLQDLKDGVLRTPLPAKQTFLDDPLRVLRLIRFASRFNFTIDPEVMAEMGDPQINVAFNSKISRERVGVEMEKILVGPTPLLALQLIQRAHLENVIFFWHNDSSVVKFNEENCQDMDKINHVYNDNILNSHLKSFIELYPMFLEKLPILREKIGRSPGFQQNFILSAILSPMANLQIIGNPKKKINNLVSVTESIVKEGLKLSKNDAAVIAKTVDSICSYEEILAKFADRSQLKKSEIGIFLRNFNGEWETAHFASLSDAFLKIPKLETKKIELLFQNYNEFYSYIFDNNLNNCHELKPIVDGKQMAKLLQMKPGPWLGKINNEAIRWQFDNPTGTDQELITHLKAILPKYL | not soluble
19 | SHLHPLHKNTTGYDLRHLFIGSEGTLGIITAATLKLFANPLDKATAWVGIPDIESAVRLLTETQAHFAERLCSFELIGRFAAELSSEFSKLPLPTHSEWHILLELTDSLPDSNLDDRLVEFLYKKGFTDSVLAQSEQERIHMWALRENISASQRKLGTSIKHDIAVPIGRVADFVRRCAKDLEQNFKGIQIVCFGHLGDGSLHYNTFLPEILSNEVYRYENDINSTVYRNVLACNGTIAAEHGIGIIKKQWLDKVRTPAEIALMKSIKQHLDPYNIMNPGKLLP | not soluble
20 | MFDSIRETIDYAVENNMSFADIMVKEEMELSGKSRDEVRAQMKQNLDVMRDAVIKGTTGDGVESVTGYTGHDAAKLRDYNETHHALSGYEMIDAVKGAIATNEVNAAMGIICATPTAGSSGTIPGALFKLEKTHDLTEEQMIDFLFTSALFGRVVANNASVAGATGGCQAEVGSASAMAAAAAVAIFGGSPEASGHAMALAISNLLGLVCDPVAGLVEIPCVMRNAIGSGNALISADLALAGIESRIPVDEVIEAMDKVGRNLPASLRETGLGGLAGTPTGEAIKRKIFGTAEDMVKNN | not soluble
